According to the DeepSol protein solubility set:

Assay: soluble on expression in E. coli; label from the status in PepcDB or PDB records
In the case of “MAMQLEICANSAASCRQAELGGATRVELCAGIPEGGTTPSAGEMAVARSLIAIPIHVIIRPRAGDFVYSSEEIEAMCYDIRVVRSLGMEGVVFGCLTPEGGYDEEANSRLLKEAQGMQLTFHRAFDVCAAPFEMLEKLIAAGFHRVLTSGCAPTALEGKDMIGALNKQATGRIGIMAGCGIRLGNIETLARHTGITQFHSSLRHDIPSSMRFRRPEVSMGGTVKIDEYSRPETSADMVRQAVDILQGILEHHHHHH”, the “soluble on expression in E. coli” value is reported as “not soluble”.
For “MMIAAAIFTTCVDGNKFFYHREIKVLRHLKRFNKPALKSIKSEDGDVIDCVPITNQPAFDHHLLKNHTIQMRPSFYPVSDSTYTKREAKAVTQVWHKAGECPKNTVPIRRTKKEDLLRPKSIRSFGRKSHQSIPRTTTFDPTLGHQYALMGVRNGKFYGTEVAINLWKPYVQIPKEFSLAQTWVVSGNGSSLNTIEAGWQVYPELYDDNNPRFFVYWTRDGYRKTGCYNLLCSGFVQTSNRYTVGGSITTMSRYRGTQYDLSVLIWKDQKTGNWWLRVNEKDVIGYWPGSLFNSLGREATRVEWGGEIINSKTGGRHTTTDMGSGHFADEGFKKASYFRNLKIVDGTNTLREPQGLYFFADKHNCYNVKTGNGGTSWGAHFFYGGPGRNVKCP”, the “soluble on expression in E. coli” value was “soluble”.
For “MAHHHHHHMDMNFGFCNDAFFEQGNRSTDKEDIEELKKGESNEITKKGNNELGEEKELPKELCVPVTIKLLLSKMMSHEEFKIHDFQISGIIVFGKVCRIKELASAIIFEICDYTGNIEAKYNKDAKNEKVKDHIEGIKVNDHIKVVGVVYSPESKTEQIQISISYINKVEDWVSYFSYFTSDVIYCYLKLLKLKNIYTPNGVNNEDKPWSHVTLDTYYNQLDDIDTDIIKYLHTTSEKYANQQDIFEHLKKYHSEMNIKKSLTKLIEQYDLAQYEDIISIP”, the “soluble on expression in E. coli” value was “not soluble”.
With “MSSNRQAYYKNNAKEQIGKEKRNEEVVSIRKDKREEAISKRRNINTQIEDDSETSTTPPGPFDANLLRLTVAAAQSSDPAEQLTAVQQARKMLSTDRNPPIDDLIGSGILPVLVQCLSSTDPNLQFEAAWALTNIASGTSEQTQAVVNAGAVPLFLQLLSCGNLNVCEQSVWALGNIIGDGPHFRDYCLELGILQPLLQFINPEIPIGFLRNVTWVIVNLCRCKDPAPSPAVVRTILPALSLLIHHQDTNILIDTVWALSYLTDGGNEHIQMVIEAQVVTHLVPLLGHVDVKVQTAALRAVGNIVTGTDEQTQLVLDSGVLRFMPGLLAHYKEKINKEAVWFVSNITAGNQQQVQDVFDAGIMPMIIHLLDRGDFPTQKEAAWAISNVTISGRPNQVEQMVKLGVLRPFCAMLSCTDSQIIQVVLDGINNILKMAGEAAEQVTSEIEECGGLDKIENLQNHENEDIYKLAFEIIDNFFSSDDETGNVEGAQSSAFGGDVPPVPDAPNGGWNFGK” the “soluble on expression in E. coli” value was “not soluble”.
For “SALTAALSVCPLPSSSFFFAGFLPHKKGRKSRLEFLASIDSTIVLYESPHRIGRLMEEVKEHFPDAQVFAAREITKMHEEYVTGTPDELANHFTGQKQRGEFVVVVHPPDKH”, the “soluble on expression in E. coli” value was “not soluble”.
For “MNYFFCADESRQVNEDPIGSGCRRQCYVLIECPPPWMANEFDSKAVPANLRSLENEFYAVEPDGILLFIYSEELRQNYLTRILIFRPMMGYSGGYIKQEIHVSSLEDVAIVLKDWLAGKDIADTDINPHTRDILVCTHGTHDKCCAKYGIPFYRQAKNIVADLAVESVRIWQSSHFSGHRFAPTILDLPQGRYYGKLDCQSFTNILTYTGDINCLKSIYRGWGILPFPAQVMEGELIFLHGWQWFNYKVSCCFIEQSEDECFNRIEISAILPDGDIKTYQADVVEDESKSIYLIGDCHGIEPELIPKYSVNNLIQII”, the “soluble on expression in E. coli” value was “not soluble”.
In the case of “MGSDKIHHHHHHMKSTTVPSEGGGGLDATTRTSVQPHPLHGPDATWQETNCYIDLWIELLHAWGLDPRAALPFTVAQDFEGDHFTFFKYPQADLETLYGTVVQEMAVYDTLQAHVVTQVERGHTVLVEVDSYYLPDTHATAYKREHVKTTVAIDNIDPHAQRLSYFHSLGYHSAHDEDYRGLMRLSRELSGNGNILFPYAECAKRVRPALTMPAMADASVALMRQHLDRLPAINPVTLWRREFDAHMDTLLARDDAYFHLYTFNLPRQLGANFEMLHHWLRWLDEQGRGNPLAARAAESAATIAAEAKVLQFRLARAVARRRADPCTQSLDVLECCYDKTVEGLLSAFGDTRLAAA”, the “soluble on expression in E. coli” value is reported as “not soluble”.
With “MGSDKIHHHHHHMNKIINNILNTCKQYTYILPHKLLRQYIAHYTISIPDTSIKENLTLIPDASGCMIFKFDKKGIESAFWGATTKTTIVKNDIENVLFRVFVEFRPGGVYYLTGLSQRESTDLKISLEDFNTLFSLEVNSIFERTSTIKELVEQLDMLFLSYLLKSNIVDMTIPILENARKQNSIMSVKNISQISCYSERHLNRIFNNSLGMSVKSYLRLLRINLVLQEIQNNKIPFATLAQDIGYYDQSHFINDFKSICGVNPTTYIKNLSDFYNEKYKF” the “soluble on expression in E. coli” value was “not soluble”.
In the case of “MAHHHHHHMCSDVKFSERLTTSPAVVTGFLSPTLRKVMKATMKNSDFNDNTNNSNNMNMFQNLPATLELNPSHTIVTSIYHLKNTNQEVAKLLVQQLYDNACIAAGILEDPRSLLSKLNELLLLTARYAYHYEKKDIQENTKDQPIDVKDNTMAIDNIVNTKENNTNDDSVMKEAQSSNL”, the “soluble on expression in E. coli” value is reported as “soluble”.
For “MGSDKIHHHHHHMREHDEGLLNGITPDRIRDHIRALEGVRHPLAAPEALERAAGYIRETFGSLGYPVADHLFMDGGREFANIIATHTGGSKSGRRVLVVAHYDTVTTTPGADDNASGVAVLLELATILKCLRFERCLQFVAVTLEENEDEHNPRDLGTRGSRALAAHARREGWEIEGAVVLESVAYAGDAVVQRTPAGIPFTVPATGNFIGVIGNEASRGMVDRFGQAVGSREAGLPWVPLVVPGNGGLLPDSRRSDHAPFWDHGYKAIMLTDTTNFRNPHYHQPSDTLETLNLDFAVQVCRATAALLLDIAKASEP”, the “soluble on expression in E. coli” value was “not soluble”.
For “MVRVKVNDRIVEVPPGTSVMDAVFHAGYDVPLFCSEKHLSPIGACRMCLVRIGLPKKGPDGKPLLNEKGEPEIQWQPKLAASCVTAVADGMVVDTLSDVVREAQAGMVEFTLLNHPLDCPTCDKGGACELQDRTVEYGLYEKYYQKGPLELPVYTRFEFTRRHVDKHHPLSPFVILDRERCIHCKRCVRYFEEVPGDEVLDFIERGVHTFIGTMDFGLPSGFSGNITDICPVGALLDLTARFRARNWEMEETPTTCALCPVGCGITADTRSGELLRIRAREVPEVNEIWICDAGRFGHEWADQNRLKTPLVRKEGRLVEATWEEAFLALKEGLKEARGEEVGLYLAHDATLEEGLLASELAKALKTPHLDFQGRTAAPASLFPPASLEDLLQADFALVLGDPTEEAPILHLRLSEFVRDLKPPHRYNHGTPFADLQIKERMPRRTDKMALFAPYRAPLMKWAAIHEVHRPGEEREILLALLGDKEGSEMVAKAKEAWEKAKNPVLILGAGVLQDTVAAERARLLAERKGAKVLAMTPAANARGLEAMGVLPGAKGASWDEPGALYAYYGFVPPEEALKGKRFVVMHLSHLHPLAERYAHVVLPAPTFYEKRGHLVNLEGRVLPLSPAPIENGEAEGALQVLALLAEALGVRPPFRLHLEAQKALKARKVPEAMGRLSFRLKELRPKERKGAFYLRPTMWKAHQAVGKAQEAARAELWAHPETARAEALPEGAQVAVETPFGRVEARVVHREDVPKGHLYLSALGPAAGLRVEGRVLVPAGGEA”, the “soluble on expression in E. coli” value was “soluble”.
With “MSLRIIVVGGGKVGTALCRSLVAEKHDVVLIEKKENVLKRVTKQHDIMGIVGNGANYKILEQAEVKNCDIFIAITDRDEVNMISAVLAKKMGAKETVVRMRNPEYSNPYFKDKNFLGFSSVVNPELLAAQYIANTIEFPNATSVEHFANGRVMLMEFKILEGNKLCHTSMSQIRKKFGNIVICAIERDGKLIIPDGDATIQVKDKIFVTGNRIEMILFHNYVKNKVVKNLMVIGAGRIAYYLLNILKNTNTHVKLVELNQEQAEYFSQEFPNVPVVHGDGTAKNILLEESVTSFDAVATLTGVDEENIITSMFLESIGIPKNITKVNRTSLLEIIDDKQLSSIITPKRIAVDHVMHFVRGRVNAQDSNLEAMHHIANDRIETLQFEIKETSKLANRSLASLKLKQNILIAAIIRNNKTIFPTGEDVLTVGDRIVVITLLKNITRTSDMLAREGHHHHHH” the “soluble on expression in E. coli” value was “soluble”.
In the case of “MKIYVSRSRLKSNRRRLINETDVERLFSRNGFQIIHPQELTIKEQINLFRHAQVIAGPLGSAMYNCVFQTKPTKKLLLTYEKFIKMSDLLINTSTNGLLYYFAGTEHKQNKSPSNTEWLEHHHHHH”, the “soluble on expression in E. coli” value is reported as “soluble”.
For “GPGSMAETRKEEWSEPEVPGGRSEVVAGIKRRREKLELYQSASHKMKALMMNSAGIRSGLGANNELPVNPIWMKFPTRCVKPIHSVEEMREKLHYFSHSDDVMVVRYHQENCTACNALDKTFEFLCHQSADRYPNLKFYEVSKDATPQLTRNLVRYPQVKGFSGGHWTDLEFKPPAEFREELYSGVEREVTRRKREGQPVTALEAEEMYYSSAGPAMAQVLEESVVKFYCKAQARLHNYWKQVSVRRAWFFRKFVEPKVDDQVRDEWRLKSVFGEKLSYGPEPQMEEF”, the “soluble on expression in E. coli” value was “not soluble”.
With “MLQVTGIPDACDNLAPIPMECDAPFLSIKGELPRELNGTLYRNGANPQFVSPNAHWFFGDGMLHAFHLENGRASYRNRWVRTPKWLAEHEAGRPLYGEFNLKLPDAPRSVPDDGNVANTNIVFHAGRLLALEEAHLPMQIERDTLETRCYCDYGGALKGPFTAHPKIDPVTGEMLFFGYNASGPLTRTMSFGAIDASGNVTRLEHFKAPFAAMVHDFIVTEHHVLFPILPLTGSIWRAMRGRPPYAWDPRKGSYVGVMKRSGSTRDVRWFRGEACFVFHVMNAWEDGTRIVADVMQSEEAPLFTHPDGRRTDPEKGRARLCRWSFDLAGNTNAFKRSYLDEISGEFPRIDERRAGLRSGHGWYACASPETPMLGMLTGLVHVDGNGHRRTRYLLPTGDTIGEPVFVPRAADANEAEGWLLAVVWRGCENRSDLAVFNATDIAAGPIALVQLGHRIPDGFHGNWVPAGAAALEHHHHHH” the “soluble on expression in E. coli” value was “not soluble”.
For “GQNHHEVVKFMDVYQRSYCHPIETLVDIFQEYPDEIEYIFKPSCVPLMRCGGCCNDEGLECVPTEESNITMQIMRIKPHQGQHIGEMSFLQHNKCECRPKKD”, the “soluble on expression in E. coli” value was “soluble”.
With “ARGSHMEEMIRSLQQRPEPTPEEWDLIHIATEAHRSTNAQGSHWKQRRKFLPDDIGQSPIVSMPDGDKVDLEAFSEFTKIITPAITRVVDFAKKLPMFSELPCEDQIILLKGCCMEIMSLRAAVRYDPESDTLTLSGEMAVKREQLKNGGLGVVSDAIFELGKSLSAFNLDDTEVALLQAVLLMSTDRSGLLCVDKIEKSQEAYLLAFEHYVNHRKHNIPHFWPKLLMKVTDLRMIGACHASRFLHCKVECPTELFPPLFLEVFEDQEV” the “soluble on expression in E. coli” value was “soluble”.
For “MLRSTSDRFRWSSLSLAIACTLPLATQAADTTTTQTSSKKHSTDTMVVTATGNERSSFEAPMMVTVIEGNAPTSQTAATAADMLRQVPGLTVTGSGRTNGQDVVMRGYGKQGVLTLVDGVRQGTDTGHLNSTFLDPALVKRIEIVRGPAALLYGSGALGGVIAYETVDAADMLQPGQNSGYRVYSSAATGDHSFGLGASAFGRTDDLDGILSFGTRDIGNIRQSNGFNAPNDETISNVLAKGTWQIDSIQSLSANLRYYNNSAIEPKNPQTSAPSSTNVMTNRSTIQRDAQLRYNIKPLDQEWLNATAQVYYSEVEINARPQGSAEEGREQTTEGVKLENRTRLFIESPASHLLTYGTETYKQEQTPGGATESFPQAKIRFSSGWLQDEITLRDLPVSILAGTRYDNYSGSSDGYADVDADKWSSRGAISITPTDWLMLFGSYAQAFRAPTMGEMYNDSKHFAIPIRPGLTLTNYWVPNPNLKPETNETQEYGFGLRFSDLLMAEDDLQFKVSYFDTKAKDYISTRVDMQAMTTTSVNIDQAKIWGWDASMSYKTALFNWDLAYNRTRGKNQNTDEWLDTINPDTVTSIVDVPVANSGFSVGWIGTFANRSSRVSSSTPQAGYGVNDFYVSYKGQEAFKGMTTTMLLGNVFEKEYYTPQGIPQDGRNVKFFVSYQW”, the “soluble on expression in E. coli” value was “not soluble”.
